Experimental data taken from patent US20260049105A1, “SELECTIVE MC4R LIGAND FOR TREATING OBESITY AND COGNITIVE LOSS” (ARIZONA BOARD OF REGENTS ON BEHALF OF THE UNIVERSITY OF …, priority 2022, published 2026).
pIC50: −log10 of the molar value. Read-outs that look alike come from different tables or passages of the source.

Columns and labels:
[1] = target: human melanocortin 3 receptor (human) (UniProt P41968); test: competition with 125I-NDP-α-MSH, cells expressing hMC3R
[2] = target: human melanocortin 5 receptor (human) (UniProt P33032); test: cell-based or functional assay
Sequence of human melanocortin 5 receptor (human) (P33032 whole entry): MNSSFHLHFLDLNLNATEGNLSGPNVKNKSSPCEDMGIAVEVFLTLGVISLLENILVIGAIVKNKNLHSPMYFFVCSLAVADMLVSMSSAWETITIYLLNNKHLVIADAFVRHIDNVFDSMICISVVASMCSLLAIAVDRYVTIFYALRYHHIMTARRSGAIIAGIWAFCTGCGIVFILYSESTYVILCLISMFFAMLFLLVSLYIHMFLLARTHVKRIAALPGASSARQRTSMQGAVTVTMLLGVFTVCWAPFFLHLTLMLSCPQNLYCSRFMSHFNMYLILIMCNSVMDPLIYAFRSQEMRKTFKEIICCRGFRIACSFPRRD

[3] = target: human melanocortin 4 receptor (human) (UniProt P32245); test: cell-based or functional assay
Sequence of human melanocortin 4 receptor (human) (P32245 whole entry): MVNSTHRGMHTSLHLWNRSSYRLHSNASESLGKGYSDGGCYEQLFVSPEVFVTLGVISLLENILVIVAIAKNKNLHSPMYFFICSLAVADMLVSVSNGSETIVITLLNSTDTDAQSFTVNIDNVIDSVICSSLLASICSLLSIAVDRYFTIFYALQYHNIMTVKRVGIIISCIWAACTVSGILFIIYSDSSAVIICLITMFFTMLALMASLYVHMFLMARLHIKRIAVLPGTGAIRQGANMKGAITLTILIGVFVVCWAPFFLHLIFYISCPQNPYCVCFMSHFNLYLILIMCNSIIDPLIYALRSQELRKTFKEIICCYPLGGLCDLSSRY

[4] = target: human melanocortin 1 receptor (human) (UniProt Q01726); test: cell-based or functional assay
Sequence of human melanocortin 1 receptor (human) (Q01726 whole entry): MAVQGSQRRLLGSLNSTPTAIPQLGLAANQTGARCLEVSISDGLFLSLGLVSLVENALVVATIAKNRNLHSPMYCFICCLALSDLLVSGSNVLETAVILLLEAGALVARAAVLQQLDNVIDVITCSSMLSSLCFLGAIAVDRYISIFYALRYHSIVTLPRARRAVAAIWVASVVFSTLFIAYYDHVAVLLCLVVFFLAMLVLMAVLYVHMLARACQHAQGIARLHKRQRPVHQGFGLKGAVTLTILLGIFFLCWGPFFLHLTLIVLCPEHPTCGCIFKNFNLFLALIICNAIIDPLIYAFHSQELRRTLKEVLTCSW

[5] = target: human melanocortin 3 receptor (human) (UniProt P41968); test: cell-based or functional assay
[6] = target: human melanocortin 5 receptor (human) (UniProt P33032); test: competition with 125I-NDP-α-MSH, cells expressing hMC5R
[7] = target: human melanocortin 4 receptor (human) (UniProt P32245); test: competition with 125I-NDP-α-MSH on whole HEK293 cells expressing hMC4R
[8] = target: human melanocortin 4 receptor (human) (UniProt P32245); test: as above; remark: listed apart in the source
[9] = target: human melanocortin 1 receptor (human) (UniProt Q01726); test: competition with 125I-NDP-α-MSH, cells expressing hMC1R
[10] = target: human melanocortin 4 receptor (human) (UniProt P32245); test: plasmon waveguide resonance, hMC4R membranes
[11] = target: human melanocortin 4 receptor (human) (UniProt P32245); test: competition with 125I-NDP-α-MSH, ratio of IC50 values

Sequence of human melanocortin 3 receptor (human) (P41968 whole entry): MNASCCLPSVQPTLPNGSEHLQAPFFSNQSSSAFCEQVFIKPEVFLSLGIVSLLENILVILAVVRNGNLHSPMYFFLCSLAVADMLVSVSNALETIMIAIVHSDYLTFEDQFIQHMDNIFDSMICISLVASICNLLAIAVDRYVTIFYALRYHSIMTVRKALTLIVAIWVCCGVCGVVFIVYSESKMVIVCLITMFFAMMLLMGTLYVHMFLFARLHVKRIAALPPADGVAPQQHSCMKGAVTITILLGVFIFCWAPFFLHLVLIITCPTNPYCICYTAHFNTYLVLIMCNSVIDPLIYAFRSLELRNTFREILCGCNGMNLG

Substance	BE % (percent NDP-α-MSH displacement at 10 µM) [1]	pIC50 [1]	Act % [2]	EC50 (nM), cAMP accumulation [2]	Act % [3]	EC50 (nM), cAMP accumulation [3]	Act % [4]	EC50 (nM), cAMP accumulation [4]	Act % [5]	EC50 (nM), cAMP accumulation [5]	BE % (percent NDP-α-MSH displacement at 10 µM) [6]	pIC50 [6]	BE% (percent [125I]NDP-α-MSH displacement at 10 µM) [8]	pIC50 [8]	BE % (percent NDP-α-MSH displacement at 10 µM) [9]	pIC50 [9]	further results
Ac-Arg-cyclo[Asp-Pip-D-Phe-βArg-βTrp-Lys]-NH2 (peptide)	100%	8.15	82%	290 nM	84%	16 nM	82%	190 nM	87%	120 nM	46%	6.22	100%	10.00	30%	6.57	pIC50 [7]: 9.00
Ac-Arg-cyclo[Asp-Pip-D-Phe(4-F)-Arg-βTrp-Lys]-NH2 (peptide)	100%	6.93	72%	530 nM	46%	630 nM	90%	64 nM	76%	450 nM	100%	7.33	9%	–	100%	9.70	–
Ac-Arg-cyclo[Asp-Pip-D-Phe(4-Cl)-βArg-Trp-Lys]-NH2 (peptide)	100%	6.97	38%	> 1000 nM	66%	110 nM	89%	130 nM	46%	360 nM	0%	–	100%	8.10	100%	8.30	–
Ac-Arg-cyclo[Asp-Pip-D-Phe(4-F)-βArg-βTrp-Lys]-NH2 (peptide)	39%	6.40	51%	> 1000 nM	120%	> 1000 nM	61%	> 1000 nM	49%	> 1000 nM	90%	7.23	59%	6.61	0%	–	–
RM493 (peptide)	–	–	–	–	–	–	–	–	–	–	–	–	–	–	–	–	PWR left shift against hMC4R sole, p-polarization [10]: 0.25 degrees; PWR resonance position, s-polarization (sole MC4R 33.29) [10]: 33 degrees
Ac-Arg-cyclo[Asp-Pip-D-Phe(4-Cl)-Arg-βTrp-Lys]-NH2 (peptide)	70%	7.43	21%	> 1000 nM	57%	240 nM	67%	99 nM	24%	> 1000 nM	0%	–	100%	8.00	100%	9.05	–
Melanotan II, Ac-Nle-c[Asp-His-DPhe-Arg-Trp-Lys]-NH2 (peptide)	100%	8.05	100%	2 nM	100%	10 nM	100%	32 nM	100%	3 nM	100%	8.22	100%	–	100%	8.15	–

Now from value to substance, other results behind:

BE % (percent NDP-α-MSH displacement at 10 µM) [1]	pIC50 [1]	Act % [2]	EC50 (nM), cAMP accumulation [2]	Act % [3]	EC50 (nM), cAMP accumulation [3]	Act % [4]	EC50 (nM), cAMP accumulation [4]	Act % [5]	EC50 (nM), cAMP accumulation [5]	BE % (percent NDP-α-MSH displacement at 10 µM) [6]	pIC50 [6]	BE% (percent [125I]NDP-α-MSH displacement at 10 µM) [8]	pIC50 [8]	BE % (percent NDP-α-MSH displacement at 10 µM) [9]	pIC50 [9]	Substance	further results
10%	–	76%	295 nM	87%	4 nM	90%	240 nM	63%	> 1000 nM	75%	7.15	100%	9.40	100%	7.57	Ac-Arg-cyclo[Asp-Pip-D-Phe(4-Cl)-βArg-βTrp-Lys]-NH2 (peptide)	EC50 (cAMP) [3]: 4.2 nM; PWR resonance position, p-polarization (hMC4R sole 26.44) [10]: 26.9 degrees; fold higher binding affinity to hMC4R than hMC1R [11]: 68 fold; fold higher binding affinity to hMC4R than hMC3R [11]: > 1000 fold; fold higher binding affinity to hMC4R than hMC5R [11]: > 1000 fold
60%	6.83	95%	580 nM	63%	> 1000 nM	88%	120 nM	88%	680 nM	66%	6.46	0%	–	100%	8.52	Ac-Arg-cyclo[Asp-Pip-D-Phe-Arg-βTrp-Lys]-NH2 (peptide)	–
24%	6.22	90%	> 1000 nM	67%	47 nM	120%	220 nM	89%	> 1000 nM	0%	–	100%	9.40	100%	10.00	Ac-Arg-cyclo[Asp-Pip-D-Phe-βArg-Trp-Lys]-NH2 (peptide)	–
